Assay results reported in publication PMC11468923, “Mechanism of degrader-targeted protein ubiquitinability” (Science Advances, 2024).
Substitutions are numbered along the chain they refer to. Numbers in names are those of the source. One block for each binder: values may come before it.

What was measured:
[1] = target: T1, wild-type ubiquitin (donor ubiquitin, Ub^D) (human, UniProt P0CG48 1-76, C terminus isopeptide-linked to K93 of UBE2R1(C93K, S138C, C191S, C223S)); assay: cryo-EM structure; closed cross-linked sample: 6 uM NEDD8-CRL2^VHL (1 equiv), MZ1 (1.5 equiv) and Brd4^BD2-Ub(G76S,K48C)-UBE2R1(C93K, S138C, C191S, C223S)-Ub (1.5 equiv), 10 min at 4 C; 20 mM Hepes, 150 mM NaCl, 0.5 mM TCEP, pH 7.5; Krios 300 keV; ~3.7 A; details: both partners purified
T1 construct: wild-type ubiquitin, the cut product of its precursor; Stood in the closed cryo-EM sample as part of the cross-linked conjugate m8

[2] = target: T2, ^15N-labeled ubiquitin (human wild-type Ub residues 1 to 76) (human, UniProt P0CG48 1-76, uniformly ^15N-labeled; C terminus isopeptide-linked to K93 of UBE2R1(C93K) in the conjugate sample); assay: NMR 15N-1H HSQC chemical shift perturbation; ^15N-Ub free against ^15N-Ub isopeptide-linked to UBE2R1(C93K); 150 uM, 298 K, 600 MHz; 20 mM sodium phosphate, 150 mM NaCl, 0.5 mM TCEP, 5% D2O, pH 7.0; details: both partners purified
T2 construct: ubiquitin, human wild type, residues 1 to 76; also called ^15N-Ub; Ub(^15N); source: E. coli BL21(DE3) Rosetta II, ^15N autoinducing media, purified (His-Trap, TEV, SEC); not shown: His6, N-terminal, cleaved

- binding result [1]: binds
B1: UBE2R1(C93K, S138C, C191S, C223S) (enzyme, human, UniProt P49427 1-236, looked up)
chain: MARPLVPSSQKALLLELKGLQEEPVEGFRVTLVDEGDLYNWEVAIFGPPNTYYEGGYFKARLKFPIDYPYSPPAFRFLTKMWHPNIYETGDVKISILHPPVDDPQSGELPSERWNPTQNVRTILLSVISLLNEPNTFCPANVDASVMYRKWKESKGKDREYTDIIRKQVLGTKVDAERDGVKVPTTLAEYSVKTKAPAPDEGSDLFYDDYYEDGEVEEEADSSFGDDEDDSGTEES
modifications: K93 (C93K) isopeptide-linked to the C terminus of donor ubiquitin; C138 (S138C) cross-linked by BMOE to Ub(K48C,G76S)-Brd4^BD2
notes: UBE2R1 (also known as Cdc34), human, full length; prepared by the same method as UBE2R1(C93K); Stood in the closed cryo-EM sample as part of the cross-linked conjugate m8; also called the E2; source: E. coli BL21(DE3) Rosetta II, purified (His-Trap, ULP1, SEC)

- binding result [2]: binds
B2: UBE2R1(C93K) (enzyme, human, UniProt P49427 1-236, looked up)
chain: B1 chain with C138S, S191C, S223C
modifications: K93 (C93K) isopeptide-linked to the C terminus of ^15N-labeled ubiquitin
notes: UBE2R1 (also known as Cdc34), human, full length; also called Cdc34 C93K; the E2; source: E. coli BL21(DE3) Rosetta II, purified (His-Trap, ULP1, SEC)
